Values of other authors, collected in paper PMC3025320.

Assays:
C3d C3d (Homo sapiens) = C3d C3d (Homo sapiens) (UniProt P01024); assay: ITC
[1] = target: C3d C3d (996-1303) (Homo sapiens) (UniProt P01024); assay: ITC
C3d C3d (996-1303) (Homo sapiens), sequence (P01024 996-1303): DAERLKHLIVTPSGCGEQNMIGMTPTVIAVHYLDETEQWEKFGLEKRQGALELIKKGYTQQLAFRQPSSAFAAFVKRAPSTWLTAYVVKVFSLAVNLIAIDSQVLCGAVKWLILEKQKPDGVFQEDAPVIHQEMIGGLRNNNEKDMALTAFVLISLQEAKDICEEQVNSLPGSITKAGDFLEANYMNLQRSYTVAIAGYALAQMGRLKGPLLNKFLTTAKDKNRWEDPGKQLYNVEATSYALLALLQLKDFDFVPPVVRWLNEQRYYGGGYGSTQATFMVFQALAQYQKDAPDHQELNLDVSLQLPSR

C3d C3d (Homo sapiens), sequence (P01024 1002-1303): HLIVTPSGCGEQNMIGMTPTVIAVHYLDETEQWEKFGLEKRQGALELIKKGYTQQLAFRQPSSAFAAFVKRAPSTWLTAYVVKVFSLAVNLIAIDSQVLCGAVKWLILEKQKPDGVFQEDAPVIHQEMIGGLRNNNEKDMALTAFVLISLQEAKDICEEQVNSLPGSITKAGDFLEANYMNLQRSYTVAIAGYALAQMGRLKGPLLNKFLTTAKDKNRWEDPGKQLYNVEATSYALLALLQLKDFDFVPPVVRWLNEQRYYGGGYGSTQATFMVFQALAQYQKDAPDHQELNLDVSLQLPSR
Efb-C Efb-C, sequence (P68799 101-165): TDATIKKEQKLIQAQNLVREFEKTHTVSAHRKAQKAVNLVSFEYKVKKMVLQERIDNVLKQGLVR

Efb-C Efb-C (from UniProt P68799)
Kd (C3d C3d (Homo sapiens)): 2 nM

Sbi-III-IV domains III-IV (from UniProt A7X659)
Kd (C3d C3d (Homo sapiens)): 400 nM

Sbi-III–IV domains III-IV (from UniProt A7X659)
Kd [1]: 400 nM

Sbi-IV domain IV (from UniProt A7X659)
Kd [1]: 360 nM
Kd (C3d C3d (Homo sapiens)): 360 nM
